Tests used:
hFasLigand (Flag-tagged) = biological target: T1, hFasLigand (Flag-tagged) (Homo sapiens, UniProt P48023); test: ELISA: FasLigand binding to adsorbed FLINT and Fas; settings: 100 ng receptor adsorbed
T1 sequence (P48023 103-281 limits assumed): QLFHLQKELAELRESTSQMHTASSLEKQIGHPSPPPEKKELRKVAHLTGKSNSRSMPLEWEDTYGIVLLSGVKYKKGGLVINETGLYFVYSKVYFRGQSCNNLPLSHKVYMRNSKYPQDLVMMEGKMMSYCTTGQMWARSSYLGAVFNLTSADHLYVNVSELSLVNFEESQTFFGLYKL
Protocol: FLINT and Fas (100 ng of each) were adsorbed on to an ELISA plate. hFasLigand (Flag-tagged) was added at different concentrations to a maximum concentration of 300 ng down to 0.1 ng on TBST plus a 0.1% solution containing 1 microgram/ml of M2 Abs. After washing of the plate, anti-mouse-Abs-HRP (1:3000 dilution, Bio-Rad) was added to the wells. After washings, visualization enzymatic reaction using ABTS as a substrate was performed.

osteoclasts [1] = test: Murine osteoclast differentiation assay (TRAP staining); format: cell-based, mouse; settings: mean and standard error of 6 wells
Protocol: Male Balb/C mice (4-8 weeks old) were euthanized with CO2, the femurs removed, and the marrow flushed out of the femurs with growth medium. Bone marrow cells were pelleted by centrifugation at 500×g for 6 min. and resuspended in the growth medium (RPMI 1640 plus 5% heat inactivated fetal bovine-serum and 1% antibiotic-antimycotic solution). The marrow population (5×10^4 cells/cm^2) was seeded in tissue culture dishes in which BALC cells (a stable cell line derived from neonatal mouse calvariae, 1.5×10^4 cells/cm^2) had been plated 2 h prior to addition of bone marrow. The cells were cultured for 7 days in a humidified incubator at 37° C. with 5% CO2 with medium changes on days 3 and 5. Cultures were treated with or without 10^−8M 1,25-(OH)2D3 on days 0, 3, and 5. In addition, -the cells were treated with or without secreted mFLINT protein purified from the conditioned medium of cells transfected with mFLINT gene (FIG. 1). Following 7 days of culture, the cells in 24-well cluster dishes were fixed with formalin (3.7% for 10 min) and then stained for tartrate-resistant acid phosphatase (TRAP) using a modification of the method described by Graves, L and Jilka R L, J Cell Physiology 145:102 1990. The number of osteoclasts (TRAP-positive cells containing 3 or more nuclei) was quantitated.

osteoclasts [2] = test: Porcine osteoclast differentiation assay (TRAP staining); format: cell-based, pig; settings: mean and standard error of 6 wells
Source text: Neonatal pigs (aged 1-5 days) were euthanized with CO2, the appendages were rinsed with 70% ethanol, the soft tissues were removed, and the humeri, radii, ulnae, femora, tibiae and fibulae were excised. The long bones were placed in ice-cold calcium and magnesium-free Hank's balanced salt solution (CMF-HBSS, Gibco BRL) and cleaned of all soft tissues. The bones were split longitudinally and the endosteal surfaces were scraped to remove both the marrow and trabecular bone. The suspension of trabecular bone particles and marrow cells was agitated by vigorous shaking and passed through a […] and then […] sieve. Cells were centrifuged at 500×g for 10 minutes at 4° C., the pellet was resuspended in CMF-HBSS, and then separated on a Ficoll-Paque gradient (Pharmacia, Piscataway, N.J.). The mononuclear cell fraction from the gradient was washed twice in CMF-HBSS and passed through a […] sieve. The cells were suspended in growth medium consisting of a-MEM (pH 7.2, which was modified to contain 8.3 mM NaHCO3 (Gibco BRL, Grand Island, N.Y.)), 10% heat-inactivated fetal bovine serum (FBS, Hyclone, Logan, Utah) and 2% antibiotic/antimycotic solution (Gibco BRL, Grand Island, N.Y.) and seeded onto tissue culture dishes at a density of 1×10^6 cells/cm^2. A typical marrow cell yield was between 1-2×10^9 cells/animal, which varied with the size of the animal. The cells were incubated at 37° C. in a humid incubator with 5% CO2. […] Following 5 days of culture, the cells were fixed with formalin (3.7% for 10 min) and then stained for tartrate-resistant acid phosphatase (TRAP) as in Example 6. The number of osteoclasts (TRAP-positive cells containing 3 or more nuclei) was quantitated.

B1: mFLINT: mature FLINT without leader peptide (FIG. 3), soluble TNFR superfamily member, made according to Examples 8 and 9 (protein)
chain: VAETPTYPWRDAETGERLVCAQCPPGTFVQRPCRRDSPTTCGPCPPRHYTQFWNYLERCRYCNVLCGEREEEARACHATHNRACRCRTGFFAHAGFCLEHASCPPGAGVIAPGTPSQNTQCQPCPPGTFSASSSSSEQCQPHRNCTALGLALNVPGSSSHDTLCTSCTGFPLSTRVPGAEECERAVIDFVAFQDISIKRLQRLLQALEAPEGWGPTPRAGRAALQLKLRRRLTELLGAQDGALLVRLLQALRVARMPGLERSVRERFLPVH
modifications: glycosylated
OD, 405 nM (hFasLigand (Flag-tagged); FasL 0.1 ng): 0 | OD, 405 nM (hFasLigand (Flag-tagged); FasL 0.5 ng): 0 | OD, 405 nM (hFasLigand (Flag-tagged); FasL 1.0 ng): .02 | OD, 405 nM (hFasLigand (Flag-tagged); FasL 5.0 ng): .04 | OD, 405 nM (hFasLigand (Flag-tagged); FasL 10 ng): .12 | OD, 405 nM (hFasLigand (Flag-tagged); FasL 50 ng): .28 | OD, 405 nM (hFasLigand (Flag-tagged); FasL 100 ng): .78 | Osteoclasts/well (osteoclasts [1]; FLINT 0.01 ng/ml, control 145.50): 40.50 ± 2.39 Osteoclasts/well | Osteoclasts/well (osteoclasts [1]; FLINT 0.10 ng/ml): 65.50 ± 3.33 Osteoclasts/well | Osteoclasts/well (osteoclasts [1]; FLINT 1.00 ng/ml): 97.50 ± 3.10 Osteoclasts/well | Osteoclasts/well (osteoclasts [1]; FLINT 10.00 ng/ml): 170.17 ± 8.26 Osteoclasts/well | Osteoclasts/well (osteoclasts [1]; FLINT 100.00 ng/ml): 335.00 ± 8.90 Osteoclasts/well | Osteoclasts/well (osteoclasts [2]; FLINT 0.01 ng/ml, control 214.83): 68.83 ± 6.28 Osteoclasts/well | Osteoclasts/well (osteoclasts [2]; FLINT 0.10 ng/ml): 176.17 ± 23.01 Osteoclasts/well | Osteoclasts/well (osteoclasts [2]; FLINT 1.00 ng/ml): 228.50 ± 17.26 Osteoclasts/well | Osteoclasts/well (osteoclasts [2]; FLINT 10.00 ng/ml): 228.50 ± 29.29 Osteoclasts/well | Osteoclasts/well (osteoclasts [2]; FLINT 100.00 ng/ml): 382.33 ± 26.59 Osteoclasts/well

From patent US20040167074A1, “Therapeutic applications of mFLINT polypeptides” (priority 1998, published 2004)
